Changes are numbered by the printed parent chain.
B1: 91 (antibody, V domains shown)
VL: DIQMTQSPSSLSASVGDRVTITCRASENIYRNLAWYQQKPGKAPQLLLYAATNLADGVPSRFSGSGSGTDYTLTISSLQPEDFATYYCQHFWGTPWTFGQGTKVEIK
VH: QVQLVQSGSELKKPGASVKVSCKASGYTFTDYSMHWVRQAPGQGLKWMGWINTETGEPTYADDFKGRFVFSLDTSVSTAYLQISSLKAEDTAVYYCARIPLYYYGSRYWYFDVWGQGTTVTVSS
modifications: constant regions without entry; synthetic humanized antibody light chain variable region sequence; synthetic humanized antibody heavy chain variable region sequence
B2: 92 (antibody, V domains shown)
VL: B1 VL
VH: B1 VH with V2I
modifications: constant regions without entry; synthetic humanized antibody light chain variable region sequence; synthetic humanized antibody heavy chain variable region sequence
B3: 93 (antibody, V domains shown)
VL: EIVMTQSPATLSVSPGERATLSCRASENIYRNLAWYQQKPGQSPRLLIYAATNLADGIPARFSGSGSGTEYTLTISSLQSEDFAVYYCQHFWGTPWTFGQGTKVEIK
VH: B1 VH with K46E, D62Q, D63G, K65T
modifications: constant regions without entry; synthetic humanized antibody light chain variable region sequence; synthetic humanized antibody heavy chain variable region sequence
B4: 94 (antibody, V domains shown)
VL: B3 VL
VH: B1 VH with D62Q, D63G, K65T
modifications: constant regions without entry; synthetic humanized antibody light chain variable region sequence; synthetic humanized antibody heavy chain variable region sequence
B5: 71 (antibody, V domains shown)
VH: B1 VH with V2I, D62Q, D63G, K65T
VL: B3 VL
modifications: synthetic humanized antibody heavy chain variable region sequence; synthetic humanized antibody light chain variable region sequence

Target: T1, human EphB2 (Homo sapiens, UniProt P29323)
T1 construct: a protein of the extracellular region of each human Eph receptor fused with the SEAP protein and the His tag; made in house; host or cells: Expi293F cells
T1 sequence (P29323 19-543 limits assumed): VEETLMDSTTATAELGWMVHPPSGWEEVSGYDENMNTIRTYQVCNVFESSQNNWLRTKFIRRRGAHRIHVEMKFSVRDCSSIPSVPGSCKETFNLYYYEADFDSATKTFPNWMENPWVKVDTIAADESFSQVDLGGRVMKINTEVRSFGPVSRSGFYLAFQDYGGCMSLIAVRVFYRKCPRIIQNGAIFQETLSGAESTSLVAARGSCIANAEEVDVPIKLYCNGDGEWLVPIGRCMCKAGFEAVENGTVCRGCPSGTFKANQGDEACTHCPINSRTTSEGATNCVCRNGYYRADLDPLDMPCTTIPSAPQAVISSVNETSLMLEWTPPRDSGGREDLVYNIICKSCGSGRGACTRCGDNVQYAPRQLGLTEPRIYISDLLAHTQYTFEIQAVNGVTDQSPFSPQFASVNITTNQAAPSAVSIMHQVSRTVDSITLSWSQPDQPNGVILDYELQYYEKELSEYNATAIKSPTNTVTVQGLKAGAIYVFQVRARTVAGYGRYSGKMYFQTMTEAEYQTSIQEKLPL
Assay: Selectivity ELISA of humanized antibodies for human Eph receptor
Format: binding
Details: coated protein 1 nM
Procedure, shortened: (§1)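 Steps: coat anti-His antibody; block, then 1% BlockAce overnight at 4 °C; add Eph receptor extracellular region-SEAP-His (1 nM final) 1 h; add humanized antibody 1 h; add HRP anti-IgG 1 h; develop TMB; stop with acid; read 450 nm.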

| hEphB2-SEAP-: absorbance at 450 nm, percentage with respect to hEphA4-SEAP-His as 100% [%] | Molecule |
| --- | --- |
| 7.0 | B1 |
| 6.6 | B2 |
| 5.0 | B3 |
| 7.0 | B4 |
| 5.5 | B5 |

Target: T2, human EphA7 (Homo sapiens, UniProt Q15375)
T2 construct: a protein of the extracellular region of each human Eph receptor fused with the SEAP protein and the His tag; made in house; host or cells: Expi293F cells (culture supernatant)
T2 sequence (Q15375 28-555 limits assumed): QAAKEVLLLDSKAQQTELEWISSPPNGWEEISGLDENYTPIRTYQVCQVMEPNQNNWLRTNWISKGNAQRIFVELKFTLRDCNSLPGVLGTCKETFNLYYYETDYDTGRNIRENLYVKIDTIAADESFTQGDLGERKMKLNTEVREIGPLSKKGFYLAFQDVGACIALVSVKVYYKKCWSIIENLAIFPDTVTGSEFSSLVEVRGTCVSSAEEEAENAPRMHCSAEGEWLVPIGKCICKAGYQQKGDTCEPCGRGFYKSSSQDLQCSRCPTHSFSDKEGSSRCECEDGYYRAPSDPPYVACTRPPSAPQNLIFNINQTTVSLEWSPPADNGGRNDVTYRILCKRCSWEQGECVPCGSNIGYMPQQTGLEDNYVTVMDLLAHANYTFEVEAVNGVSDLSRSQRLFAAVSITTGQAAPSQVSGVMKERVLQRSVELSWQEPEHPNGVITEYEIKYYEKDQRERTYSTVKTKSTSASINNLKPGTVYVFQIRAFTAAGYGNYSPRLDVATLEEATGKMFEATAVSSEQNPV
Assay: as above
Format: binding
Details: coated protein 1 nM
Procedure, shortened: as §1

| hEphA7-SEAP-: absorbance at 450 nm, percentage with respect to hEphA4-SEAP-His as 100% [%] | Molecule |
| --- | --- |
| 5.6 | B1 |
| 6.4 | B2 |
| 4.9 | B3 |
| 6.1 | B4 |
| 5.2 | B5 |

Target: T3, human EphB1 (Homo sapiens, UniProt P54762)
T3 construct: a protein of the extracellular region of each human Eph receptor fused with the SEAP protein and the His tag; made in house; host or cells: Expi293F cells (culture supernatant)
T3 sequence (P54762 18-540 limits assumed): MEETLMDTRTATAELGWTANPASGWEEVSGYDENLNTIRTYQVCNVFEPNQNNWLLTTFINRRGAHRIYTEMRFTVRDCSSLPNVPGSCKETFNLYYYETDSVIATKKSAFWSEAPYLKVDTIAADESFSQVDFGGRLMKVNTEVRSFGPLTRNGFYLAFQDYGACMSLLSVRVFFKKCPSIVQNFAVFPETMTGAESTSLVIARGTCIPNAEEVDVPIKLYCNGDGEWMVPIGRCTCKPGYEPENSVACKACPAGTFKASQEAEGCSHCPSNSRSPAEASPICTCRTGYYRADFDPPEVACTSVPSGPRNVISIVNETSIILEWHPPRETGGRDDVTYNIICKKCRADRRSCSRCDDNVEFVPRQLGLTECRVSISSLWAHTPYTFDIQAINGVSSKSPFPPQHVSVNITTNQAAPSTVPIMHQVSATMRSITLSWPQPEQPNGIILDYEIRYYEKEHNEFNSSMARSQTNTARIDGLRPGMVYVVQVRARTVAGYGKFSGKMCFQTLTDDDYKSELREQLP
Assay: as above
Format: binding
Details: coated protein 1 nM
Procedure, shortened: as §1

| hEphB1-SEAP-: absorbance at 450 nm, percentage with respect to hEphA4-SEAP-His as 100% [%] | Molecule |
| --- | --- |
| 6.6 | B1 |
| 6.9 | B2 |
| 5.0 | B3 |
| 6.7 | B4 |
| 5.4 | B5 |

Target: T4, human EphA5 (Homo sapiens, UniProt P54756)
T4 construct: a protein of the extracellular region of each human Eph receptor fused with the SEAP protein and the His tag; made in house; host or cells: Expi293F cells (culture supernatant)
T4 sequence (P54756 25-573 limits assumed): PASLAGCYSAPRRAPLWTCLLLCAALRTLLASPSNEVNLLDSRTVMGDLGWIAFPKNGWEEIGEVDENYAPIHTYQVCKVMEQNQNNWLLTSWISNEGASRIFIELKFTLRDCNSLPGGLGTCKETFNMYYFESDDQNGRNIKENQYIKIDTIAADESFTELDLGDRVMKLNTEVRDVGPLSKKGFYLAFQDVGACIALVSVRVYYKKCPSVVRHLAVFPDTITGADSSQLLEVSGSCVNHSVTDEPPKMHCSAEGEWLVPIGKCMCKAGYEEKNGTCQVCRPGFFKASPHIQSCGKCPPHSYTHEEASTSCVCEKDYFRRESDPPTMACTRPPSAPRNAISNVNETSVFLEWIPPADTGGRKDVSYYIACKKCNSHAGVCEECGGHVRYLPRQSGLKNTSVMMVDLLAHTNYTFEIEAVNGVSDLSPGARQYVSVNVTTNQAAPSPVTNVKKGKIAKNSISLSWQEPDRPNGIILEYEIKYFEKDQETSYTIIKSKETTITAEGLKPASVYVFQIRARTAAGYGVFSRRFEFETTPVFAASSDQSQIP
Assay: as above
Format: binding
Details: coated protein 1 nM
Procedure, shortened: as §1

| hEphA5-SEAP-: absorbance at 450 nm, percentage with respect to hEphA4-SEAP-His as 100% [%] | Molecule |
| --- | --- |
| 6.4 | B1 |
| 6.8 | B2 |
| 4.9 | B3 |
| 6.5 | B4 |
| 5.6 | B5 |
